# Publication PMC3901689, “Leptin-Induced Endothelium-Dependent Vasorelaxation of Peripheral Arteries in Lean and Obese Rats: Role of Nitric Oxide and Hydrogen Sulfide” (PLoS ONE, 2014)
# T1: human leptin binding domain (hLBD) consisting of the amino acids 428-635 of human leptin receptor (human, UniProt P48357 428-635)
# T1 chain: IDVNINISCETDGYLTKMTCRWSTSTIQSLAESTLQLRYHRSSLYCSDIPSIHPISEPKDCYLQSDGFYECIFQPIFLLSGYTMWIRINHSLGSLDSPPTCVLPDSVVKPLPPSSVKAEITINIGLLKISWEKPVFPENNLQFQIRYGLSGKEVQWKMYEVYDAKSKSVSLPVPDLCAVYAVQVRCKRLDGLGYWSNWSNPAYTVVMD
# T2: human leptin binding domain (hLBD) consisting of the amino acids 428-635 of human leptin receptor (human, UniProt P48357 428-635)
# T2 sequence (looked up): T1 chain
# B1: super active rat leptin antagonist (D23L/L39A/D40A/F41A mutant), non-pegylated (ligand)
# chain: AVPIHKVQDDTKTLIKTIVTRINLISHTQSVSARQRVTGAAAIPGLHPILSLSKMDQTLAVYQQILTSLPSQNVLQIAHDLENLRDLLHLLAFSKSCSLPQTRGLQKPESLDGVLEASLYSTEVVALSRLQGSLQDILQQLDLSPEC
# notes: extra Ala left at the N-terminus from an extra Met-Ala (Met is cleaved by the bacteria); leptin, rat; about 16 kDa by SDS-PAGE; also called SRLA
# B2: mono-pegylated super active rat leptin antagonist (D23L/L39A/D40A/F41A mutant) (ligand)
# chain: B1 chain
# modifications: mono-pegylated (90%, with 10% double pegylated product); site and PEG size not stated
# notes: extra Ala left at the N-terminus from an extra Met-Ala (Met is cleaved by the bacteria); leptin, rat; same chain as m1; also called PEG-SRLA; pegylated superactive rat leptin receptor antagonist
# Legend:
# [1] = molecular target: T1, human leptin binding domain (hLBD) …; test: ELISA; competition with biotinylated human leptin; given as EC50
# [2] = molecular target: T2, human leptin binding domain (hLBD) …; test: competitive non-radioactive receptor-binding assay; hLBD immobilized; biotinylated human leptin bound in the presence of the indicated concentrations of SRLA or PEG-SRLA; triplicates; conditions: both partners purified
Binder,IC50 [1] [nM],binding result [2]
B1,0.977,binds
B2,9.31,binds
